Assays:
[1] = biological target: T1, endogenous EphA2 molecules on three strains of gastric cancer cells (Homo sapiens, UniProt P29317); assay: Flow cytometry binding on gastric cancer cells; conditions: flow cytometry (FIG. 15A)
T1 construct: identify endogenous EphA2 molecules on three strains of gastric cancer cells; endogenous in cells
Text: Flow cytometry was used to analyze the response of hSD5 IgG in identifying endogenous EphA2 molecules on the three strains of gastric cancer cell lines. PC represents the use of commercial Ab to determine the expression of EphA2 on cancer cells; NC represents the control group with irreverent of the isotype IgG1 antibody. The hSD5 was used to identify endogenous EphA2 molecules on three strains of gastric cancer cells by flow cytometry analysis. […] (FIG. 15A)

[2] = test system: hTERT HPNE, AsPC-1, BxPc-3, and Mia PaCa-2; assay: Growth inhibitory response of pancreatic cell lines to serially diluted hSD5-ADC; type: cell-based, human; conditions: serial dilution (FIGS. 11A-11D)
[3] = biological target: T2, endogenous EphA2 molecules on the four brain tumor cell lines (GBM8901, LN229, T98G and U87MG) (Homo sapiens, UniProt P29317); assay: Flow cytometry binding on brain tumor cell lines; conditions: flow cytometry (FIG. 16B)
T2 construct: identifying endogenous EphA2 molecules on the four strains of brain tumor cell lines; endogenous in cells; host or cells: GBM8901, LN229, T98G, U87MG
Text: Flow cytometry was used to analyze the response of hSD5 IgG in identifying endogenous EphA2 molecules on the four strains of brain tumor cell lines. PC represents the use of commercial Ab to determine the expression of EphA2 on cancer cells; NC represents the control group with irreverent of the isotype IgG1 antibody. (FIG. 16B)
The hSD5 was used to identify endogenous EphA2 molecules on the four brain tumor cell lines by flow cytometry analysis. PC uses a commercial anti-EphA2 antibody, and NC is the control group with irreverent of the isotype IgG1.

[4] = test system: EphA2pep_P1 and EphA2pep_P2 synthetic peptides; assay: Dot blot assay with synthetic peptides; type: binding; conditions: dot blot (FIG. 9B)
Text: We used peptide enzyme-linked immunosorbent assay (ELISA) to identify the designed epitope on EphA2; the BSA-conjugated peptides EphA2pep_P1 (BSA-[…]) and EphA2pep_P2 (BSA-[…]) each represent the two segments of the linear epitope designed on EphA2. EphA2pep_PIP2 (BSA-[…]) represents the two linear epitope sequences connected by a linker. These peptides were synthesized and conjugated with BSA (Kelowna International Scientific). The BSA-conjugated peptides were individually coated on a 96-well microplate at 4° C. overnight. After the wells were blocked with 3% BSA, IgG hSD5 was added and incubated. Next, an HRP-conjugated anti-HA tag antibody (Cell Signaling Technology) was used to detect bound scFv. Finally, the TMB substrate was added for development, and the reaction was stopped by adding 1 N HCl. Absorbance was measured by determining the OD at 450 nm. A dot blot assay was used to detect the binding of IgG hSD5 to the synthesized peptides; […] of individual peptides (1 mg/mL; in triplicate) were dropped on the NC membrane and maintained at RT for complete absorption. Blocking with 3% BSA was performed at RT for 1 h. Then, IgG hSD5 (10 μg/mL) was added, and the reaction was allowed to proceed for 1 h at RT. After the membrane was washed, the HRP-conjugated anti-HA tag antibody was added, and the reaction was allowed to proceed for 1 h at RT. […]

[5] = test system: Mia PaCa-2 tumor; assay: Mia PaCa-2 tumor xenograft model (IgG hSD5, gemcitabine); type: in vivo, mouse
Description: The freshly prepared BxPc-3 and Mia PaCa-2 cancer cells were harvested during the log growth phase and resuspended in PBS for tumor implantation. Each NOD/SCID mouse was subcutaneously inoculated with cancer cells (5×10^6 to BxPc-3 and 1×10^7 to Mia PaCa-2) for tumor formation. The tumor size was measured twice weekly, and the volume was calculated as follows: V=0.5lw^2, where l=the length and w=the width. When the tumor size was approximately 100 mm3, animals were divided into groups that received (a) vehicle alone through intravenous injection (i.v.) once weekly (qwk), (b) control human IgG1 at 20 mg/kg through i.v. qwk, (c) and (d) hSD5 IgG1 at 2 or 20 mg/kg through i.v. qwk, (e) and (f) gemcitabine at 20 or 100 mg/kg through i.v. twice weekly (biw), or (g) hSD5 IgG1 at 2 mg/kg through i.v. qwk combined with gemcitabine at 20 mg/kg through i.v. biw. At the end of the experiment, the antitumor effects were quantified by dividing the tumor volumes in the treatment groups by those in the control groups and multiplying them by 100 to represent tumor growth inhibition (TGI; %). The mice were also examined frequently for overt signs of adverse drug-related side effects.
The pancreatic tissue microarray slide (US Biomax, PA483e) was used to detect and analyze the EphA2 expression of clinical samples. In the xenograft animal model, the excised BxPc-3 and Mia PaCa-2 tumors were fixed in formalin, embedded in paraffin, and sliced for immunohistochemical staining (IHC). Commercial antibodies (Cell signaling, Dako; Agilent Technologies; and Abcam) were used for staining the EphA2 molecule, cell proliferation marker Ki-67, and apoptosis marker cleaved caspase 3. The effects of staining were observed using a Zeiss Axioskop-2 microscope (Carl Zeiss).
Mia PaCa-2 xenograft mice was also used to determine the inhibitory effect of IgG hSD5 on in vivo tumor growth. Administration of IgG hSD5 (20 mg/kg, iv, qwk, indicated as blue filled inverted triangles) and Gemcitabine (100 mg/kg, iv, biw, indicated as orange filled squares) were used to test the inhibition effect on BxPc-3 tumor growth, n=6, TGI denotes Tumor growth inhibition. (FIG. 8A) Administration of IgG hSD5 (2 mg/kg, iv, qwk, indicated by solid black triangles), Gemcitabine (20 mg/kg, iv, biw, indicated by black open squares), and the experimental group that combined IgG and Gemcitabine treatment simultaneously (indicated by solid red diamonds) were used to teat the growth inhibitory effect of BxPc-3 on the tumor. (FIG. 8B) During treatments, the weight changes of each mouse group were tracked. (FIG. 8C) The expression levels of EphA2, cell proliferation marker Ki67, and apoptosis-related marker cleaved caspase3 in the excised tumor groups were analyzed by IHC staining. (FIG. 8D)

[6] = test system: BxPc-3 cells; assay: Antibody internalization (endocytosis) assay; type: cell-based, human; conditions: BxPc-3, 1 h, 37° C. vs 4° C. (FIG. 6B)
Description: BxPc-3 cells were seeded on cover glasses placed in the wells of a 6-well culture plate. The BxPc-3 seeded glass slides were incubated with ephrin A1-Fc (Sino Biological) or IgG hSD5 for 1 h at 37° C. or 4° C. After washing with PBS, the cells were fixed with 100% ice methanol for 10 min. Next, the cells were stained with an FITC-conjugated anti-human Fc antibody and were subsequently mounted with ProLong Diamond Antifade Mountant comprising 4′,6-diamidino-2-phenylindole for nuclear counterstaining (Invitrogen). The cells were imaged using a confocal microscope (Leica Microsystems).

T2 sequence (P29317 24-976, stated change not applied): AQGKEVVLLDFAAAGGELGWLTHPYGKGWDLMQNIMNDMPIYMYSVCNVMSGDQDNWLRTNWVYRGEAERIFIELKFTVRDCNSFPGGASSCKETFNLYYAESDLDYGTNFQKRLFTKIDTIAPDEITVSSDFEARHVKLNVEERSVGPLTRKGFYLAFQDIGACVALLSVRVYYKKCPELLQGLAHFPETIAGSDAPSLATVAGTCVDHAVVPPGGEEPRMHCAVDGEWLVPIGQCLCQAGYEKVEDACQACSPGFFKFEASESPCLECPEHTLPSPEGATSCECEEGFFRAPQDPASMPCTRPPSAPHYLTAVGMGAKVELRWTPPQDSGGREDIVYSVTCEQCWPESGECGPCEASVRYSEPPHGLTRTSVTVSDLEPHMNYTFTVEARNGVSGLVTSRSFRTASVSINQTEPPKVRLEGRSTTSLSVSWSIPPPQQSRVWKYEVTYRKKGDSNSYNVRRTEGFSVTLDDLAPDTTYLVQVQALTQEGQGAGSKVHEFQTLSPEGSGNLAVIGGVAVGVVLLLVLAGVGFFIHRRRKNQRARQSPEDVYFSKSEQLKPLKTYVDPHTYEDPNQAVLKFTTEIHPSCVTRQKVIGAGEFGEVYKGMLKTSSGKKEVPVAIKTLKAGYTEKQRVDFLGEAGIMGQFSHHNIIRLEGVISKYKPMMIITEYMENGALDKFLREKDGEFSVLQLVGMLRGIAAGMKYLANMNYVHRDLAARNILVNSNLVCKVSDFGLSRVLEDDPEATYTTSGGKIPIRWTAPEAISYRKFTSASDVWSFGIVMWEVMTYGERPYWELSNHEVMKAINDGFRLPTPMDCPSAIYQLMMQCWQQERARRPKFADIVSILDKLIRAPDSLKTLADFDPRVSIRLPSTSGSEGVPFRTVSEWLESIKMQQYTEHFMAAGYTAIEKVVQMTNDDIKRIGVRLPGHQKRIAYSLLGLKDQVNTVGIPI
T1 sequence (P29317 24-976): as the sequence (P29317 24-976, stated change not applied) above

binding response to EphA2 molecules on gastric cancer cells [1]: significant binding response
binding response to EphA2 molecules on brain cancer cells [3]: significant binding response
binding reaction with EphA2pep_P1 compared with EphA2pep_P2 [4]: stronger
B1: IgG hSD5: complete humanized anti-EphA2 IgG (IgG1) of hSD5 (antibody, V domains shown)
VH: QVQLVESGGGLVQPGGSLRLSCAASGFTFSDYGMGWVRQAPGKGLEWVAGISAAGSFTPYGAAVKGRFTISRDNSKNTVYLQMNSLRAEDTAVYYCARIPSGYRAGEIYTWGQGTLVTVSS
VL: LTQPPSVSVSPGQTVRITCSGSSGSYGWYQQKSPGQAPVTLIYDNDKRPSGIPERFSGSSSGSTSTLTISGVQAEDEADYYCGSADSSTYVGMFGGGTKLTVL
growth inhibitory response of pancreatic cell lines [2]: does not provide ideal inhibition effect
recognition of EphA2pep_P1 and EphA2pep_P2 [4]: can recognize both the antigen fragments
expression levels of EphA2 and Ki-67 in the tissue ([5]; IHC of Mia PaCa-2 tumor tissue sections (FIG. 8D)): significantly decreased
TGI (tumor growth inhibition) ([5]; Mia PaCa-2 xenograft, 20 mg/kg): 63.2%
endocytosis after targeting EphA2 [6]: endocytosed from the cell membrane into the cytoplasm

Source: patent US20250340655A1, “EPHA2-TARGETING ANTIBODIES AND THEIR APPLICATIONS IN CANCER TREATMENT” (TAIPEI MEDICAL UNIVERSITY, priority 2022, published 2025)
